This test concerns the target S. aureus DNA gyrase fusion truncate GyrB27:A56 (GKdel) (Staphylococcus aureus) (UniProt P66937). Briefly: crystal structure; 2.8 Å, space group P6_(1); microbatch under oil, 20 °C; complex with 20-447T DNA duplex, zoliflodacin and MnCl2; 90 mM Bis-Tris pH 6.3, 9% PEG 5 kMME.

As a reminder, the stoichiometry N is a count of units in the complex or per binding partner.

Take “S. aureus DNA gyrase fusion truncate GyrB27:A56 (GKdel) (from UniProt P66937 409-644; Q99XG5 2-491) (enzyme)”: the stoichiometry N is 2.
